Measurements as given in US20190085030A1.
Non-standard residues stand in square brackets, D forms with d. No end group written: not given here.

Each binder was assayed against A-beta1-42 (UniProt P05067) (assay: iodixanol density gradient centrifugation of A-beta1-42 with FITC-labelled peptide; dye in fraction 12).
Chain of A-beta1-42 (P05067 672-713 limits assumed): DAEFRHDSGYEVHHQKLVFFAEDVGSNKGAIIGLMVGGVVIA

Binder | Peptide bound in fraction 12 [%]
[dR][dP][dR][dT][dR][dL][dH][dT][dH][dR][dN][dR] (also: FITC label, site not given here) [D3 (SEQ ID NO: 11)] | 4%
[dR][dP][dR][dT][dR][dL] [NT-D3 (D3-N-Terminus) (SEQ ID NO: 6)] | 0%
[dP][dT][dL][dH][dT][dH][dN][dR][dR][dR][dR][dR] (also: FITC label, site not given here) [RD2 (rational D3) (SEQ ID NO: 2)] | 20%
[dR][dR][dP][dT][dL][dR][dH][dT][dH][dN][dR][dR] (also: FITC label, site not given here) [RD3 (rational D3) (SEQ ID NO: 4)] | 4%
[dR][dP][dR][dT][dR][dL][dR][dN][dR] (also: FITC label, site not given here) [D3Δhth (D3 with deletion hth) (SEQ ID NO: 1)] | 2%
